Measurements: patent publication US20240173426A1 (Regeneron, published 2024)

T1: human FGFR3b expressed with a C-terminal myc-myc-hexahistidine tag (hFGFR3b.mmH) (human)
T1 construct: monomeric; also called REGN3152; monomeric human FGFR3b
T1 chain: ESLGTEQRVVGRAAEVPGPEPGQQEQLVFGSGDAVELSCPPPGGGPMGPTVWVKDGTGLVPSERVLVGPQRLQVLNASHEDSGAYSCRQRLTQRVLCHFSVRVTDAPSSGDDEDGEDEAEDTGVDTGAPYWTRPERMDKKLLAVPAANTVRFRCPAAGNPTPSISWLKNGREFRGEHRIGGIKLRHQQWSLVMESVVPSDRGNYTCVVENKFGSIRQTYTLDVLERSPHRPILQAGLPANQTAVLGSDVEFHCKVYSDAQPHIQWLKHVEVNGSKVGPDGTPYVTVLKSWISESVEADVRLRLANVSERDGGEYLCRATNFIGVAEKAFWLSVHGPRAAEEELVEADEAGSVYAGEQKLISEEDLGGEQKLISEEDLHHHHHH

T2: murine FGFR3b expressed with a C-terminal myc-myc-hexahistidine tag (mFGFR3b.mmH) (mouse)
T2 construct: monomeric; also called REGN3215; monomeric murine FGFR3b
T2 chain: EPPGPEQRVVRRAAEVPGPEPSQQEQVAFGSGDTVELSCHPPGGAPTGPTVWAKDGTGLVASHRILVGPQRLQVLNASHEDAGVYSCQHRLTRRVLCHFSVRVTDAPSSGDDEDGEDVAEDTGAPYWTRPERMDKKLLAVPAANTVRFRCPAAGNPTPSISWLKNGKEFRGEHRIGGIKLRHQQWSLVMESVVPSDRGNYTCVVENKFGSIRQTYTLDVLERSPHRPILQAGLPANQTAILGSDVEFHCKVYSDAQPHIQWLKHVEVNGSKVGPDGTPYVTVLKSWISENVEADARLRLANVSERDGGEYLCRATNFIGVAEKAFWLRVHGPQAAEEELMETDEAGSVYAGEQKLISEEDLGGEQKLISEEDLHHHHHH

B1: hFGFR3c-hFc (Fc fusion, human, UniProt P22607 23-375, looked up)
chain: ESLGTEQRVVGRAAEVPGPEPGQQEQLVFGSGDAVELSCPPPGGGPMGPTVWVKDGTGLVPSERVLVGPQRLQVLNASHEDSGAYSCRQRLTQRVLCHFSVRVTDAPSSGDDEDGEDEAEDTGVDTGAPYWTRPERMDKKLLAVPAANTVRFRCPAAGNPTPSISWLKNGREFRGEHRIGGIKLRHQQWSLVMESVVPSDRGNYTCVVENKFGSIRQTYTLDVLERSPHRPILQAGLPANQTAVLGSDVEFHCKVYSDAQPHIQWLKHVEVNGSKVGPDGTPYVTVLKTAGANTTDKELEVLSLHNVTFEDAGEYTCLAGNSIGFSHHSAWLVVLPAEEELVEADEAGSVYAG
notes: range 23-375; Bought (R&D Systems); also called human FGFR3c extracellular domain with human IgG1 Fc; R&D Systems 766-FR-050; not shown: Fc portion of human IgG1 at the C-terminus, amino acids Pro100-Lys330
B2: H4H30093P2 (antibody, human IgG4 S228P, kappa, V domains shown)
VH: QVQLVESGGGLVKPGGSLRLSCAASGFTFNDYPMSWIRQAPGKGLEWVSYITSSSGSTIYYADSVKGRFTISRDNAKNSLYLQMNSLRAEDTAVYYCAREVVVATIGGYYGMDVWGQGTTVTVSS
VL: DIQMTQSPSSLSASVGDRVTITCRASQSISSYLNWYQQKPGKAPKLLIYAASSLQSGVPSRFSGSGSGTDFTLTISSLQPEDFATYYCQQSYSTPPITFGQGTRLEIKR
B3: human FGFR3b expressed with a C-terminal murine Fc tag (hFGFR3b.mFc) (Fc fusion)
chain: ESLGTEQRVVGRAAEVPGPEPGQQEQLVFGSGDAVELSCPPPGGGPMGPTVWVKDGTGLVPSERVLVGPQRLQVLNASHEDSGAYSCRQRLTQRVLCHFSVRVTDAPSSGDDEDGEDEAEDTGVDTGAPYWTRPERMDKKLLAVPAANTVRFRCPAAGNPTPSISWLKNGREFRGEHRIGGIKLRHQQWSLVMESVVPSDRGNYTCVVENKFGSIRQTYTLDVLERSPHRPILQAGLPANQTAVLGSDVEFHCKVYSDAQPHIQWLKHVEVNGSKVGPDGTPYVTVLKSWISESVEADVRLRLANVSERDGGEYLCRATNFIGVAEKAFWLSVHGPRAAEEELVEADEAGSVYAGEPRGPTIKPCPPCKCPAPNLLGGPSVFIFPPKIKDVLMISLSPIVTCVVVDVSEDDPDVQISWFVNNVEVHTAQTQTHREDYNSTLRVVSALPIQHQDWMSGKEFKCKVNNKDLPAPIERTISKPKGSVRAPQVYVLPPPEEEMTKKQVTLTCMVTDFMPEDIYVEWTNNGKTELNYKNTEPVLDSDGSYFMYSKLRVEKKNWVERNSYSCSVVHEGLHNHHTTKSFSRTPGK
notes: called dimeric; also called REGN3153; dimeric human FGFR3b

Experiments:
[1] = target: T3, human fibroblast growth factor basic (hFGF basic) (human, UniProt P09038 144-288); experiment: ELISA, receptor-Fc on plate-coated hFGF basic with heparin; fixed concentration said to be chosen near the EC50 of this binding
T3 construct: Bought; also called Biolegend 571508

[2] = target: T4, human fibroblast growth factor acidic (hFGF acidic) (human, UniProt P05230 2-155, limits assumed); experiment: ELISA, receptor-Fc on plate-coated hFGF acidic with heparin; fixed concentration said to be chosen near the EC50 of this binding
T4 construct: Bought; coated on the plate with heparin; also called FGF1 acidic

[3] = target: T1, human FGFR3b expressed with a …; experiment: SPR (Biacore), recombinant human FGFR3 protein
[4] = target: B3; experiment: SPR (Biacore), captured mAb, 25 C
Protocol: (§1) The CM5 Biacore sensor surface was derivatized by amine coupling with a monoclonal mouse anti-human Fc monoclonal antibody (REGN2567). All Biacore binding studies were performed in a buffer composed of 0.01M HEPES pH 7.4, 0.15 M NaCl, 3 mM EDTA, 0.05% v/v Surfactant P20 (HBS-EP running buffer). […] Antibody-reagent association was monitored for 5 minutes while dissociation in HBS-EP running buffer was monitored for 10 minutes. At the end of each cycle, the anti-FGFR3 antibody capture surface was regenerated using a 10 sec injection of 20 mM phosphoric acid. All binding kinetics experiments were performed at 25° C.
(§2) The specific SPR-Biacore sensorgrams were obtained by a double referencing procedure. The double referencing was performed by first subtracting the signal of each injection over a reference surface (anti-hFc) from the signal over the experimental surface (anti-hFc-captured anti-FGFR3 antibodies) thereby removing contributions from refractive index changes. In addition, running buffer injections were performed to allow subtraction of the signal changes resulting from the dissociation of captured antibodies from the coupled anti-hFc surface. Kinetic association (kₐ) and dissociation (kd) rate constants were determined by fitting the real-time sensorgrams to a 1:1 binding model using Scrubber v2.0c curve fitting software.

[5] = target: T2, murine FGFR3b expressed with a …; experiment: SPR (Biacore), captured mAb, 25 C
Protocol: as §1, §2

[6] = target: T1, human FGFR3b expressed with a …; experiment: SPR (Biacore), captured mAb, 25 C
Protocol: as §1, §2

[7] = target: T5, human FGFR3c expressed with a C-terminal myc-myc-hexahistidine tag (hFGFR3c.mmH) (human, UniProt P22607 23-375); experiment: SPR (Biacore), captured mAb, 25 C
T5 construct: monomeric; also called REGN3155; monomeric human FGFR3c
Protocol: as §1, §2

T4 sequence (P05230 2-155 limits assumed, form in doubt): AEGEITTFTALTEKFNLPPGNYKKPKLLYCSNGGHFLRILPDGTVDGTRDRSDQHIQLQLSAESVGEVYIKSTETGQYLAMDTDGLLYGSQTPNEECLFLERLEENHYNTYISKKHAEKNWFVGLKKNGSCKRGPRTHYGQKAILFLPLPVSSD
T3 sequence (P09038 144-288, form in doubt): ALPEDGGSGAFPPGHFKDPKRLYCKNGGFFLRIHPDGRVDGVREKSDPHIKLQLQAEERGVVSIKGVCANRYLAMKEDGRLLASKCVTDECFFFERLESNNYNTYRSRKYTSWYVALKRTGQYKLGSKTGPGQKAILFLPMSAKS

| EC50 [1] [nM] | EC50 [2] [nM] | Kd [3] [nM] | t½ [4] [min] | t½ [5] [min] | t½ [6] [min] | t½ [7] [min] | Binder |
| --- | --- | --- | --- | --- | --- | --- | --- |
| ~7 | ~0.4 | – | – | – | – | – | B1 |
| – | – | 9.06 | 745 | 1.2 | 5.5 | 3.5 | B2 |
| – | ~4 | – | – | – | – | – | B3 |
